Patent US20220162320A1 (published 2022)
Values belong to the binder of their own block, whether it stands above or below them.

Experiments:
[1] = target: T1, CD3 (reagent of the affinity experiments of Example 18) (UniProt P07766 23-126); assay: BLI
T1 chain: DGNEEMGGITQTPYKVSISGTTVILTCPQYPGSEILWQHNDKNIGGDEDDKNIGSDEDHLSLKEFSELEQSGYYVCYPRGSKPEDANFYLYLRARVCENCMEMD

[2] = target: T2, HLA-PEPTIDE target G2: HLA-A*01:01_…, recombinant soluble complex (human, enzymatically biotinylated (BirA)); assay: BLI
[3] = target: T1, CD3 (reagent of the affinity …); assay: BLI; IgG analyte, apparent KD (bivalent), avid
[4] = target: T1, CD3 (reagent of the affinity …); assay: BLI
[5] = target: T2, HLA-PEPTIDE target G2: HLA-A*01:01_…, …; assay: BLI; remark: listed apart in the source
[6] = target: T1, CD3 (reagent of the affinity …); assay: BLI; avid; apparent KD (bivalent)
[7] = target: T2, HLA-PEPTIDE target G2: HLA-A*01:01_…, …; assay: BLI; avid; apparent KD (bivalent)
[8] = target: T1, CD3 (reagent of the affinity …); assay: BLI
[9] = target: T2, HLA-PEPTIDE target G2: HLA-A*01:01_…, …; assay: BLI; remark: listed apart in the source
[10] = target: T2, HLA-PEPTIDE target G2: HLA-A*01:01_…, …; assay: BLI; apparent KD (bivalent), avid
[11] = target: T1, CD3 (reagent of the affinity …); assay: BLI
[12] = target: T2, HLA-PEPTIDE target G2: HLA-A*01:01_…, …; assay: BLI; remark: listed apart in the source
[13] = target: T1, CD3 (reagent of the affinity …); assay: BLI
[14] = target: T2, HLA-PEPTIDE target G2: HLA-A*01:01_…, …; assay: BLI; remark: listed apart in the source
[15] = target: T1, CD3 (reagent of the affinity …); assay: BLI; apparent KD (bivalent), avid
[16] = target: T2, HLA-PEPTIDE target G2: HLA-A*01:01_…, …; assay: BLI; apparent KD (bivalent), avid; remark: listed apart in the source
[17] = target: T1, CD3 (reagent of the affinity …); assay: BLI
[18] = target: T2, HLA-PEPTIDE target G2: HLA-A*01:01_…, …; assay: BLI; remark: listed apart in the source

Kd [3]: 8.44 nM | Kd [4]: 268 nM
B2: hOKT3 IgG (antibody, V domains shown)
VH: QVQLVQSGAEVKKPGASVKVSCKASGYTFTRYTMHWVRQAPGQGLEWMGYINPSRGYTNYNQKFKDRVTLTTDKSSSTAYMELSSLRSEDTAVYYCARYYDDHYSLDYWGQGTLVTVSS
VL: DIQMTQSPSSLSASVGDRVTITCSASSSVSYMNWYQQKPGKAPKRLIYDTSKLASGVPSRFSGSGSGTDFTLTISSLQPEDFATYYCQQWSSNPFTFGQGTKLEIKR

Kd [6]: 0.828 nM | Kd [7]: 4.53 nM | Kd [8]: 5.95 nM | Kd [9]: 215 nM
B4: 6-G2(1H11)-αCD3 (bispecific antibody)
heavy: not shown
light: QAVVTQEPSLTVSPGGTVTLTCGSSTGAVTTSNYANWVQQKPGKSPRGLIGGTNKRAPGVPARFSGSLLGGKAALTISGAQPEDEADYYCALWYSNHWVFGGGTKLTVLRTVAAPSVFIFPPSDEQLKSGTASVVCLLNNFYPREAKVQWKVDNALQSGNSQESVTEQDSKDSTYSLSSTLTLSKADYEKHKVYACEVTHQGLSSPVTKSFNRGEC

Kd [13]: 20 nM | Kd [14]: 28.8 nM
B6: 5-G2(1H11)-αCD3 (bispecific antibody)
chain: not shown
heavy: QVQLVQSGAEVKKPGASVKVSCKASGYTFTNYYMHWVRQAPGQGLEWMGMINPSGGGTSYAQKFQGRVTMTRDTSTSTVYMELSSLRSEDTAVYYCARGNPWELRLDYWGQGTLVTVSSGGGGSGGGGSGGGGSGGGGSDIQMTQSPSSLSASVGDRVTITCQASQDISNYLNWYQQKPGKAPKLLIYAASSLQSGVPSRFSGSGSGTDFTLTISSLQPEDFATYYCQQYYSYPFTFGPGTKVDIKGGGGSGGGGSEVQLVESGGGLVQPGGSLRLSCAASGFTFSTYAMNWVRQAPGKGLEWVGRIRSKYNNYATYYADSVKGRFTISRDDSKNTLYLQMNSLRAEDTAVYYCVRHGNFGDSYVSWFAYWGQGTLVTVSSASTKGPSVFPLAPSSKSTSGGTAALGCLVKDYFPEPVTVSWNSGALTSGVHTFPAVLQSSGLYSLSSVVTVPSSSLGTQTYICNVNHKPSNTKVDKRVEPKSCDKTHTCPPCPAPELLGGPSVFLFPPKPKDTLMISRTPEVTCVVVDVSHEDPEVKFNWYVDGVEVHNAKTKPREEQYQSTYRVVSVLTVLHQDWLNGKEYKCKVSNKALPAPIEKTISKAKGQPREPQVCTLPPSREEMTKNQVSLSCAVKGFYPSDIAVEWESNGQPENNYKTTPPVLDSDGSFFLVSKLTVDKSRWQQGNVFSCSVMHEALHNRFTQKSLSLSPGK
light: QAVVTQEPSLTVSPGGTVTLTCGSSTGAVTTSNYANWVQQKPGKSPRGLIGGTNKRAPGVPARFSGSLLGGKAALTISGAQPEDEADYYCALWYSNHWVFGGGTKLTVLRTVAAPSVFIFPPSDEQLKSGTASVVCLLNNFYPREAKVQWKVDNALQSGNSQESVTEQDSKDSTYSLSSTLTLSKADYEKHKVYACEVTHQGLSSPVTKSFNRGEC

Further lines, the binder ahead of its results:

B1: 3-G2(1H11)-hOKT3 (bispecific antibody)
chain: not shown
heavy: QVQLVQSGAEVKKPGASVKVSCKASGYTFTRYTMHWVRQAPGQGLEWMGYINPSRGYTNYNQKFKDRVTLTTDKSSSTAYMELSSLRSEDTAVYYCARYYDDHYSLDYWGQGTLVTVSSASTKGPSVFPLAPSSKSTSGGTAALGCLVKDYFPEPVTVSWNSGALTSGVHTFPAVLQSSGLYSLSSVVTVPSSSLGTQTYICNVNHKPSNTKVDKRVEPKSCDKTHTCPPCPAPELLGGPSVFLFPPKPKDTLMISRTPEVTCVVVDVSHEDPEVKFNWYVDGVEVHNAKTKPREEQYQSTYRVVSVLTVLHQDWLNGKEYKCKVSNKALPAPIEKTISKAKGQPREPQVCTLPPSREEMTKNQVSLSCAVKGFYPSDIAVEWESNGQPENNYKTTPPVLDSDGSFFLVSKLTVDKSRWQQGNVFSCSVMHEALHNRFTQKSLSLSPGK
light: DIQMTQSPSSLSASVGDRVTITCSASSSVSYMNWYQQKPGKAPKRLIYDTSKLASGVPSRFSGSGSGTDFTLTISSLQPEDFATYYCQQWSSNPFTFGQGTKLEIKRTVAAPSVFIFPPSDEQLKSGTASVVCLLNNFYPREAKVQWKVDNALQSGNSQESVTEQDSKDSTYSLSSTLTLSKADYEKHKVYACEVTHQGLSSPVTKSFNRGEC
Kd [1]: 168 nM | Kd [2]: 421 nM

B3: 3-OKT3-G2(1H11) (antibody)
chain 1: not shown
chain 2: not shown
chain 3: MDMRVPAQLLGLLLLWLPGARCQIVLTQSPAIMSASPGEKVTMTCSASSSVSYMNWYQQKSGTSPKRWIYDTSKLASGVPAHFRGSGSGTSYSLTISGMEAEDAATYYCQQWSSNPFTFGSGTKLEINRTVAAPSVFIFPPSDEQLKSGTASVVCLLNNFYPREAKVQWKVDNALQSGNSQESVTEQDSKDSTYSLSSTLTLSKADYEKHKVYACEVTHQGLSSPVTKSFNRGEC
Kd [5]: 23.8 nM

B5: 4-G2(1H11)-αCD3 (bispecific antibody)
chain: not shown
heavy: QVQLVQSGAEVKKPGASVKVSCKASGYTFTNYYMHWVRQAPGQGLEWMGMINPSGGGTSYAQKFQGRVTMTRDTSTSTVYMELSSLRSEDTAVYYCARGNPWELRLDYWGQGTLVTVSSGGGGSGGGGSGGGGSGGGGSDIQMTQSPSSLSASVGDRVTITCQASQDISNYLNWYQQKPGKAPKLLIYAASSLQSGVPSRFSGSGSGTDFTLTISSLQPEDFATYYCQQYYSYPFTFGPGTKVDIKGGGGSGGGGSEVQLVESGGGLVQPGGSLRLSCAASGFTFSTYAMNWVRQAPGKGLEWVGRIRSKYNNYATYYADSVKGRFTISRDDSKNTLYLQMNSLRAEDTAVYYCVRHGNFGDSYVSWFAYWGQGTLVTVSSASTKGPSVFPLAPSSKSTSGGTAALGCLVKDYFPEPVTVSWNSGALTSGVHTFPAVLQSSGLYSLSSVVTVPSSSLGTQTYICNVNHKPSNTKVDKRVEPKSCDKTHTCPPCPAPELLGGPSVFLFPPKPKDTLMISRTPEVTCVVVDVSHEDPEVKFNWYVDGVEVHNAKTKPREEQYQSTYRVVSVLTVLHQDWLNGKEYKCKVSNKALPAPIEKTISKAKGQPREPQVCTLPPSREEMTKNQVSLSCAVKGFYPSDIAVEWESNGQPENNYKTTPPVLDSDGSFFLVSKLTVDKSRWQQGNVFSCSVMHEALHNRFTQKSLSLSPGK
light: QAVVTQEPSLTVSPGGTVTLTCGSSTGAVTTSNYANWVQQKPGKSPRGLIGGTNKRAPGVPARFSGSLLGGKAALTISGAQPEDEADYYCALWYSNHWVFGGGTKLTVLRTVAAPSVFIFPPSDEQLKSGTASVVCLLNNFYPREAKVQWKVDNALQSGNSQESVTEQDSKDSTYSLSSTLTLSKADYEKHKVYACEVTHQGLSSPVTKSFNRGEC
Kd [10]: 2.95 nM | Kd [11]: 11.6 nM | Kd [12]: 543 nM

B7: 2-G2(1H11)-αCD3 (bispecific antibody)
heavy: not shown
light: QAVVTQEPSLTVSPGGTVTLTCGSSTGAVTTSNYANWVQQKPGKSPRGLIGGTNKRAPGVPARFSGSLLGGKAALTISGAQPEDEADYYCALWYSNHWVFGGGTKLTVLRTVAAPSVFIFPPSDEQLKSGTASVVCLLNNFYPREAKVQWKVDNALQSGNSQESVTEQDSKDSTYSLSSTLTLSKADYEKHKVYACEVTHQGLSSPVTKSFNRGEC
Kd [15]: 0.696 nM | Kd [16]: 3.41 nM | Kd [17]: 6.02 nM | Kd [18]: 82.2 nM

B8: 3-G2(1H11)-OKT3 (bispecific antibody)
chain: not shown
heavy: not shown
light: QIVLTQSPAIMSASPGEKVTMTCSASSSVSYMNWYQQKSGTSPKRWIYDTSKLASGVPAHFRGSGSGTSYSLTISGMEAEDAATYYCQQWSSNPFTFGSGTKLEINRTVAAPSVFIFPPSDEQLKSGTASVVCLLNNFYPREAKVQWKVDNALQSGNSQESVTEQDSKDSTYSLSSTLTLSKADYEKHKVYACEVTHQGLSSPVTKSFNRGEC
Kd [5]: 24.8 nM
